Measurements: the DeepSol protein solubility set

Assay: soluble on expression in E. coli; label from the status in PepcDB or PDB records
With “MSLANNKISQTTKKLSQIFNSEKQPAVFFDKNVSTIEENNSLLDGQTDVPVLDPHDLLVEVQAVSVNPVDTKLRQTGVASKIKILGYDAFGIVKNTGKDVTRFHAGDRVYYAGTTQRPGSNEKFQAVDERLVGRAPEKLNKSEIAAMPLTSITAYEILVDQLGLRFQNHAADGKNMLVINGAGGVGSVLLQMAAYLGINLSVTAHSSESIEWLKKYSVDKIYDYENIDETLADQKFDYIVFLYDPALYWDIAIKHIKPYGQLVSIVGTNKPLNMGPLKNIAVQFKWEYMFAKSDFNHNILSQGQALDKIAILLDAGILKTTLNKTFDLINAENLRQAYKLVESGRMQGKVVLNGEGHHHHHH” the “soluble on expression in E. coli” value was “not soluble”. For “MEKDISRKIDLLNILIEEKRWFTLFELEKNLNCSSKTIRKDISIINDLLPKTIFIHSKKGKGVKLSLPQNQSISEAISNLLKKSLTFLAIQQLLEERSNTVTSLADKLYLPISSTNIVLKRVSKYIKKFGLSLEKKPLRIVGDEFQIILMFSERYLESYPDTEWPFTEYKEEMLIDYINYIEEKLEIVFYSNDKRRMAFIMTILFKRIKQGHKVKFSEWIIKETMESIYYKKIFEGKNVIKVNKNRSLNIEEQVLLVIMVKLSRYVSKDENNLKQEELVLYKEGESTTYTYVKNFISILEQELKIDLNNNEEFVYGMIEYCREAFHILKFIPILKAPEKDTCKYIKKHYEETFYLVKRAYNKWGAEMKLTDIPDEEIAKVTMRIVAIGKQHNINRKKVLLITGEGKSWEEYMKSRINKRYGDQLKFVGGHAKILNGNTDNIDNIDIDFIITTVPLNFSWKSIVYVSPILQERDFYEIGIFASK”, the “soluble on expression in E. coli” value was “not soluble”. In the case of “MAHHHHHHMAPPSSSACDPRVYLHERVRQHYLEVLPSRWRAVLFRLAKNTQLRQKNDVIVETHLLSEMQADFDLIHALLDEEHRVYREGVACLCSQASNGKSETERWTASRHLLQGMLSCIAMKEILIAHWKNDLVDISPNTLRVYCHACISHPHVSETDIERLLALYAVS”, the “soluble on expression in E. coli” value is reported as “not soluble”. With “MGSDKIHHHHHHMLKVSDLTVGNNFVHNVSFEVNPGERVGIIGESGSGKSLTALSIMGLTDLPTTGQITFNGKPSATFRGTRIAMVFQEPMSALNPLMRIGRQIEEMMTLHGASKKDARARLKSLLIDVSLPERTASAYPHELSGGQRQRALIAMALANDPDLLICDEPTTALDVVVQKQIVDLLLRLTKERGTALLFITHDLGLIARTCERLLVMKSGETVERGDTEAILRSPAHSYTQQLLDASILDQPEIASDSGAPVVIDVEEASKSFKETTALHKVSLAVRKGDLLGIVGGSGSGKTTLLKLIAGLDKPTTGTVAVTGGVQMVFQDPQSSLNPRMKIKDIVAEPLLGWNAAEKTTRVAEVITQVGLSPDVLDRYPHEFSGGQRQRISIARALAIKPAILLADEPVSALDVSVRKQVLDLLQQLVEEYGITLVFVSHDLAVVRHLCTTVWVMEQGRVLEQGPIDSVYDHPQTEYTKELLDAVPRLSL” the “soluble on expression in E. coli” value was “not soluble”. In the case of “MGSDKIHHHHHHMTENKPSEQTNELKDLVVEKEFNQTLDDLLANPFGSDGESAASIVNNETDAAPRLVDMLTETNKKQALELSKQIEPGNQAAILGYGAPAQAKLHDFSHSMLAHVQKQDVGPIGDIISDLMYRLQEADPDELAARNKNVFTKMFHRVKQSINEITSKYQKIGTQIDRIALKLEHSKKRLMEDNSFLEQLYDKNKDYFQALNIYIAAGELKLEEINTKMLPELRKKAEQTGDQMDYQEVNDLTQFADRLDKRVYDLRLSRQITIQQAPQIRLIQNTNQALAEKIQSSIMTAIPLWKNQVAIALTLLRQQQAVAAQRQVSETTNELLKRNADMLKTNAIETARENERGIVDIETLKETQSSLIETLQETLKIQQEGRAKRAVAEKELVTMEQELKERLLEMK”, the “soluble on expression in E. coli” value is reported as “not soluble”. With “MEHITLFTDILPEEQERMRICFHAREMTFRNGETIMEYSSSMKKIGLILYGRAILYCCDTEGNQYLIDEFNKDAVFGEPFLLPADSQHYYVCAAEETKIMFIDYEHVIKRCDQACYHHSQMVSNLLQLTAIQSRQQNERIYMLSRSSTRKKLMAYLNALSTEKHSKDLKLPMSYTALAQYLSVDRSAMTRELKNLEEEGIIKKSGKQIHII” the “soluble on expression in E. coli” value was “not soluble”. In the case of “MNLPPDALHENVYAFALARDQVESYCNQCLTSMAELKKCSACRRLAYCSQECQRADWKLHKVECKAIKTHNEVANDSIRLVMRIAGKLSRNEDGEIEAYYIPGVARNFQNLEHHPSSYDADEESFVKEYFQFAIAPHPDRDLIKLIFQKVSINSFVVGNSTGNPIGVGLCIKLSAANHSCKPLTRVCYRNRTAMLVPVSSELPSTLEGACHSYIDELMPRDMRRDTLKKKYKFLCQCDGCLDEDRNARMEAWTCGICVKGWMRNKENGQCELCGWTMSKDHFELCRTAEEAGIAARSRLANDAIPLETKRNLCEKLLDLFQDTLHDHNVHRIPVLRCLYICSLAAQNITAAAKTGGTLLSIMLVYQNTTDPAILFQKYQLAQLFCAAGAKTQATKLLQEIEEPLEKIYTPDSMICRNVYCMILKARNLS”, the “soluble on expression in E. coli” value is reported as “not soluble”. With “GSHMTNWLRVYYYEDTISTIKDIAVEEDLSSTPLLKDLLELTRREFQREDIALNYRDAEGDLVRLLSDEDVALMVRQARGLPSQKRLFPWKLHITQKDNYRVYNTMP” the “soluble on expression in E. coli” value was “soluble”. For “MKEAMNNHKKLGILLANLGTPQAPTSQAVKAFLSQFLHDQRVVDMSRWLWCPLLHGIILPTRSPKVAKLYQSIWMDEGSPLMVYSRRQRDKLAELSQRPVELGMTYGEPSLLEGVRKLQQQGVEQIVVLPLYPQYSATTTAAVFDGLAKALRQLPVVPELHFIRDYHDHPLYIQALAKSVRASWQQHGQGDLLLCSYHGIPKRYAQNGDIYPEHCLKTTELLAQALGLPQDKVMMTYQSQFGKEEWLQPYTDKTMEALPRQGIKKLDVICPAFSVDCLETLEEIAEQNQEIFLHSGGEAFHYVPCLNDSQSHIELMAALVKVDC”, the “soluble on expression in E. coli” value was “not soluble”. In the case of “MSLKWSAIPFQTLYRSIESGEFDFDLFKEVLPDLQNLNLNTDKLKNNASRSQLEKGEIELSDGSTFKVNQEFIFEAISLSDELNLDEIVACELILSGDTTANNGKVQYFLRRQYILQIVSFIVNCFHEDTELYQELIKNGALVSNILSAFKFIHTQLSEIKQQINKAQILENYNALFQQNIKFRRDFLLREYDILSQILYGLVDKGAIMKNKDFILSLLHHVSELDSNDFFIIYYTPAFFHLFASLRVLPDADVKLLHSQFMKDLKDDSIYTKPVKVALIFIFFAYFIGWCKEDPKRRADTMDFKTDVDEPMTSAVELGAIEQILIFAADTSIVEQDKSMELFYDIRSLLERHIPRLIPKQLLDDEKIFSQTTNSTYNPASATDNMSGRGLWNPSYPGMMSTTGTARLNSMPNNVNEYSYTTIVLSDQTQEFFLSSFDDVLQTIITDCAFLLTKIKDAEEDSLLSGEDLTLDDISLKADLERFFLSIYFFYASRPEYSCTFWSDKESNAYGFIEWCSRCNDNLMRSCFYLMVSSLSFGPENALNVYHYFGENSSISWKNIAQCLSDYTKKISNFNSSLHKRQQFSESTHNDIDSTAVALEEGLNEEAVIFLSSLLTLVGSVTYQVDEDVKSSLSKVFSDVLFEFTKINTPLVGAAFKVISNLVPKLESSRTKFWSFLDSLIFKDSSLNYSSESYRNAFTNVLTKYSDVLGFLQLFHNLISIHSREGHHHHHH”, the “soluble on expression in E. coli” value is reported as “not soluble”. In the case of “MGSDKIHHHHHHMNVRQLEAFQAVMSAGSLTAAAGLLSVSQPAVSQLIAQLEGNCGFSLFDRAGTKMRPTREAEVLHAEVQRMFIGVGRVANVAKALRDQTWGALSIASFPVLTRRMLPNIVTSFCKTRPDVKFSVESMRSRSLVDAVATQQVDLGFSILPGDRPEVDSTHVCTLRGLCILPKGHRLSKRRLIRAKDLDGEAFVALGPQDHSRFQIDKIFEEADVQRRIQVEVGQSETACSFVANGVGVAVVDPISVWNNAGADFVVCAFEPKMEFEIWLIRPKTARPFALIDTFSDYACAELMRLKEEEIDIRQPRG”, the “soluble on expression in E. coli” value is reported as “not soluble”. In the case of “MLLSRICRFRMLTRFTRLRPILQLRYLAQNSHIEEEYFEELEPTGIISSHETSQEPPKRTGFRSQNLSEDADFVENVVGALTDQRAKDVFVVKSEETEMTPYTHKIICSAFNSRQASAISENLRSLLKIDGVSNGSMSHARRSTKRSNGWYVSEVERVQVHVMSEECREKYDLEAIWAGDDRILDEIDEEKQKILLPPRR”, the “soluble on expression in E. coli” value is reported as “not soluble”. For “GEIYTETLQQTYAWTAGTNIPIKIPRNNFIRKIRVQLIGSISNSGTAAVTLPSAPFPYNLVQTFNLSYEGSKTLYSVSGTGLGILMYYTTKGQNPAYPAPGTSVPASGSVNLNVMWEFDLARFPATMVQNIILSILTGQAPSGVSINASFYITITYERVTAQEILSEGGLGADGEMPLATVLPKVIEIPTFNVPASSAPIHVAYLQPGQIYKRQLVYVINSTSGINNTDPTEYELKIVRGVPTDKIKVSWAALQAENQAEYQVAPYSGASAIIDFRKYFNGDLDLTHAPSDSIEYDLALQNQDNVYSLYVSYVLPYYDQLAALPAQVAAIVQQYVARQKRRIKRHHHHHH”, the “soluble on expression in E. coli” value was “soluble”. With “MSRVVLNVDSYEGNDTPSAEIARFVVLYGKASTRKHKIWEGDGLLVCFTDSCLLKSEDERDVICRSSALKGLDQLEDGRIINIGSWSVEIQERIATGPPQKPISAQKPEIQSPMPPMTPGNSENVENRKRGGFSSPFLGIELPKPLSKRSATFVPPLIGSESSSSGGSSSSTIQEKIPPFILNEQDILDRKTTSAVTVDTRFARHLRPHQKSGIQFIFDRLRRGSGKNGGGGGAILADDMGLGKSLQTMAATWALLKGSKTAQQLANSCLIIVPSSLVNNWKAEFDKWWRLMRFPAVIALTANDITTYQSTIKLMPYLVISYDLAQRHVEKLKIIRFDVMVCDEGHKLKNLDGKLRKTLLSLEIPRRLILTGTPMQNDFEEFYSLLDFVRPSVFGSIVEFRKMCSDRPEQLNELIDECMLRRTAADVDLKHLPEKHEYILFCAASPIQKHVHSEICDYMTGDALSLIFFARQLANHPKLLLDNLREKTEKSKAHKHSPLLLAFDGAHMPRGGVKESGKLTALVDMIKCFRLLQECTVIVSNYIETLDMIQQLCEYLNFKVLRLDGKTQVPDRQKLVRTFNDHRDPSNIFLLSTKAGGVGLNLIGASRLVLFDSDWNPANDQQAMARIWRDGQVRPCHIYRLITTGTIEEKMLQRQIKKTGLGCVIDAIEVGDTIATFTDEDLKDIFTFTGSATECNTHDLCECPCDGCGMLENEMDEEDDGDDVVENDAEKIDKSGKIDKIDSDDDEEADDEELEADVTDEVVEDSQEPPEATKPAVAAAGLRTIASLAELSRWRHFSPRHADTWHHFMTNAGLSQVDTDVELTFAFYQESQY” the “soluble on expression in E. coli” value was “not soluble”. In the case of “MTLAEENLRLFEKKFAILQEISNALVVTDNISAIANLMLDLAVNYTRAEKGSLLLLNERDELFILAGRGIDLQLMRTYRARLGEGIAGIVAKGRVPILVKDIDQDSRFQGMTRDRYKTPSFISCPIVSKDRLLGLLNINDKADGTPFLDDEFSLIKIIANQAAIALENAMLVNQLR”, the “soluble on expression in E. coli” value is reported as “not soluble”. With “MVAHSSVEGNQGIEDRQVSTEASSDVFQSQRSRPRQSTVAFQTHFKPFNYARDFKIISNTTSMLEESGFYWGPMTVEEAHLKLKKESVGTFLIRDSRQSDVFFTLSYKAQNGPVSIRINFKNSKFSLTGSKESFDSLFKLLEHYISSPKKGLIRPCRKEPVQSLQQLCRRQIMERCDGKDIDCIPVQPILKDFLHAFPHPL” the “soluble on expression in E. coli” value was “not soluble”. For “MGSDKIHHHHHHMRILGIETSCDETGVAIYDEQRGLIANQLYSQIEMHADYGGVVPELASRDHIRKTLPLIQAALKEANLTASEIDGIAYTAGPGLVGALLVGATIARALAYAWNVPALAVHHMEGHLMAPMLEENPPEFPFIALLISGGHTQLIKVAGVGEYEILGESIDDAAGEAFDKTGKLLGLDYPAGVALSQLAEKGTPNRFVFPRPMTDRPGLDFSFSGLKTFAANTINAQLDENGQLNEQTRCDIAHAFQQAVVDTIIIKCKRALQQTGYSRLVMAGGVSANKQLRAELATMMQALKGQVYYPRPQFCTDNGAMIAYTGFIRLKKGEKTDLSVSVKPRWPMTTLLKLSAHHKV”, the “soluble on expression in E. coli” value was “not soluble”.
